Reference: the DeepSol protein solubility set

Assay: soluble on expression in E. coli; label from the status in PepcDB or PDB records

Sequence	soluble on expression in E. coli
MQHKLIAFIGGGNMAQAIILGLLKQGYPAEQIIVNDPNEEKRAFFANLDVATSENNVGSAIKAEVVLLAVKPQMMAEVCSPLSAVDFSDKLLISIAAGISTERLNALIPSVKSIVRVMPNTPALVGEGMAGLFAPKNTSENYRTFAQDLLGAVGRTVWVNDETQMHAVTAASGSSPAYFFLMLEAMQKALIKMNIDEKTARELVQQSMLGAAKMVTENPQIALSTLRENVTSKGGTTAAALAVFDAQHFNQTIEQAMQACLSRSQEMETLF	soluble
MIPMFKKKPLIGMVHLKPLPGSYHYNDNFDDIVDFAIKEAKKLEEAGFDAVMIENFGDAPFKKEADKITIASMAVIAKAIKEEVSLPLGINILRNDAIGAYSIAYVVKADFIRVNVLSGVAFTDQGIIEGKAYELAKLKKLLPSKIKVFADVHVKHAYHFIDFESSLLDTVERGLADAVIISGKRTGKEVDIEKLKLAKELVDVPVIVGSGTNYNNLRILWSYADGFIIGTWIKKDGKANNEIDIDRAKKIVNLANKLKMCLEHHHHHH	soluble
MRVMAFVQARMGSTRLPGKSLMPVWNGMGVLEMTLRRALRARTLSGVVLCTSTDPACDALETLASGLGVQAFRGPEDDVLTRYALATERFEPDAVVRICADSPLVCPEGIDALVAFFRDEGLDYAAHAMDGTGLPDGLGCEVFTAAALAQAHAEATAPEDREHVSLFIRHRPERFRQATLAADAALRAPGVSLDVDTQDDLDALRRFIMALPPSEGPFWSADAIAPLARGLHTPPQGTSMDIASDDYHDFFIRDGKLIGEFEQMYRKSRHAPWHQDEACDKWFNKVSAALVGHALDDPSVRTVFEVGSGLGYFLSQFAGEGRTLTGTDVSATAVEKARALFPGISFEVDDIRFEGRRGPYDLCLMQAVCWCIFPHMDDVVRNVTATVRPGGYLFLGECFQPLDGPFAGKDVIPTPDALIGHFSHAFDTVADVRVTRGEMGGGPIIYWLGRRRGLEHHHHHH	soluble
FQGNPCECPRALHRVCGSDGNTYSNPCMLTCAKHEGNPDLVQVHEGPCDEHDHDF	soluble
MGSDKIHHHHHHMRIGCVLARKGKMMMNGELAGFTIPRLGMGTMALAIEGRPDRDTAIRTIHAGLDAGVRYLDTAWSYYLPSEPGTGTAKDLGYGEKLVRDALASWNGPRDEVLVATKTGYRRTMEIPAFVAPVSDSPESDTQGRDSEGCSRRPGGERQHLQAAGSQYGWMADSRPETMIRDAKESALHLGVDTLDLLYSHGPDPEVAYEDQVGALKQLLNEGVIRYAGISRVDNAQIDIAREILGDKLIAVQNQFSPSHPDPEHTMEHCAELGLAFVCWSPLGGFLDAFDQRAYDPFRTVAGNHGCSYQRVVLAWELSRYERLFTIPSARNPQEINDSFAATELTLTQDELAMLNASVDARRG	not soluble
MAHHHHHHMHSAIRFSGSSSRSTSSSMEVASAAAEPPLSVSSIPRRRSADRDDALSLLEPAVRLPTSTTSKASALSQSSLRSGSHPSAAVYGDNPGSAHTASSSYTRKGDNGDALLHQPPGNPQTRVPSSFAATVNTRASEASSHSARGRAGSSRRDNLDPAAPQSRTATQPPLTHPGSVFANIPWIPPPPIYGTPLPDSSNMNRHYAYYYDPRGATLRAPFCYPDEVPLRAQEHHSDVSGAEWPKPSDLPLPSVFPMPPHVLPQLSLPAVSAPTAEAAARGMVAAPHAWAIPPPVLYPPPPPPPWWFYGTHPLPLPASSSGSSASSTGSSRHASSSSPVSARSTTRPSRHPSANAARPHAEAAAPSRHGVAVPAGSVETPVAAASRGDAGGGHAAKKPSVASSGSRYAAGHTVGTGRAARRSMGSLSASSATTSPWSATTTTAHSDLPQRVERRVYASSGSGSSEMQRSATGQTVQVAPRRTNVAQCVPPDQLQVYGDDVVQERGYSSVMTRMKHAVSAAEAYLEKMEHLYRRLRSRYEEVVMSPGKVTRYGADITADEGVEEKRHRRTAPAATTRATRGPPEKGLLHPPERPFSRQTHLQPTAPLPHAERPVSPALSAAQPSAVEPSPPLSSSSSATSATSLRRELHLLESQWQRLEELKRHGGGGTTTAVSMPAALSPSTATSTAGEDPFTNRRFLQLIKDRKHLLTSAT	not soluble
GMDMKTKLQTIIGMFQITAWDETSYFESDNGAKLTQAVITQSYQGVLQGHSEIRYLMSYQDNANATFVGFEHFTGSLGDKKGSFILQHKGLFAAGVASSEFELVERSATGDFVHLVGKGHFVSTENGQANYQITLQDS	soluble
MGSDKIHHHHHHMDQEKTPLLDALKGYVEENVIPFHVPGHKQGRGNPELRKYIGSKVLKMDVNGMKELDYIGNPSGVIAEAQHLCAEAFGAEQAYFLVNGTSSGVQAMIMSACNPGNEIIIPRNAHKSTIGAIILSGAIPVYVQPQVNKVLGIATGVSAESIQKAIEEHPQAKAVFIINPSYYGIHSDLKSIVEISHQANMTVLADEAHGAHLYFHPEFSLNAIEAGADMSAVSLHKTGGAMTQSSVLLHQGDRISVDRVKQVLQLSYTSSASYILMLSIDVARKQLATRGQLLLNKTLALARQARQELNDIEDIYAFGKELIGSPGCADFDETKLGIHVRKLGLTGYQIERILRERYKIQIEFSDIYNALAIVSLGDRRENLRKLVAAFREIADERETKDASKWFNIPFCPEMIVTPRDAFYSPKRIVPLELSSGEISGEMIMAYPPGIPVICMGERITQEIIEYIQLLQVEGCELQGATDAGINHIKVLGSALPQASVSKSVSPSRSAYQEIPVYLSP	not soluble
PRKASRKPPREESSATCVLEQPGALGAQILLVQRPNSGLLAGLWEFPSVTWEPSEQLQRKALLQELQRWAGPLPATHLRHLGEVVHTFSHIKLTYQVYGLALEGQTPVTTVPPGARWLTQEEFHTAAVSTAMKKVFRVYQGQ	soluble
MENMENDENIVVGPKPFYPIEEGSAGTQLRKYMERYAKLGAIAFTNAVTGVDYSYAEYLEKSCCLGKALQNYGLVVDGRIALCSENCEEFFIPVIAGLFIGVGVAPTNEIYTLRELVHSLGISKPTIVFSSKKGLDKVITVQKTVTTIKTIVILDSKVDYRGYQCLDTFIKRNTPPGFQASSFKTVEVDRKEQVALIMNSSGSTGLPKGVQLTHENTVTRFSHARDPIYGNQVSPGTAVLTVVPFHHGFGMFTTLGYLICGFRVVMLTKFDEETFLKTLQDYKCTSVILVPTLFAILNKSELLNKYDLSNLVEIASGGAPLSKEVGEAVARRFNLPGVRQGYGLTETTSAIIITPEGDDKPGASGKVVPLFKAKVIDLDTKKSLGPNRRGEVCVKGPMLMKGYVNNPEATKELIDEEGWLHTGDIGYYDEEKHFFIVDRLKSLIKYKGYQVPPAELESVLLQHPSIFDAGVAGVPDPVAGELPGAVVVLESGKNMTEKEVMDYVASQVSNAKRLRGGVRFVDEVPKGLTGKIDGRAIREILKKPVAKM	soluble
MITFTANIDGSQANAGTGTGSLGMGVANILFDDLSNEFSWDISWSGLTGNVTAAHFHGPALLNQNAGVQVAISTLSNPTSGSDTINTAQAADLLAGLWYINIHTDTSPSGEIRGQVQVASVPEPGTLSLLLLSMIGVFYSRSKILLEHHHHHH	not soluble
MSLLFYVAYLGFYIAPTKLVRNKIKSWLLNASEYDFTDIKEGIRLHLNESPFEPPQFIIDAVKMYLSKGNRYQHPDLLEKYRELAAEYSKVEPENIYPSVGADGSIRAIFYNLVEPGDTILTNYPSYSMYSVYSSVRGTKVIKVNLKEDNEWWKENTDDLLAQAEKVELVIIDDPNNPTGSPMLNGKKELIGQLAENTKGFVVIDEAYYEFGGYTVSPYIYDYPNVLVVRTLSKAFSLASYRLGYTIANEEIVKALMKSSTPFDIPLPSLIAGITALENPSYIKDVVNIVNRNREILYQGLKNLNLKVYKSITNFLLIKDNRNLQEMLMRHGIAIRKLYDNFYRITIGTEDQCKMVIDKLGEELENSNSEGHHHHHH	not soluble
MKTTTATNSILFKLYFAPGATEQISIEYYNLQQLIEKLELKLGELGLNFNVVFWKNDKGNLISMSQNAQRVLKKMANRDSASIFVIADSDSSDSSSDSSDSGDEDVIIADAPEVAPHRRHCGRRDRSRSRGFDRSRSRSRSRSNFHDHHKRHQMKKLMWKRFQESHGHPEFKRRHCFGGRRARSASPIGRRPCREGEEFKRHPLGSFGTPCGREEFEGPTGGFGRPFGRRGMDHHGFNFHRHHHPFGAFHGFGGHHHGFGHGFGHHGFKRQHPFERRFGRC	not soluble
MLKFISLLGTSKYVPCNYFIKNREELKINDCCYVQKAILDILRQENVIPDKIIIFTTDEAHVSNWENNKWNNKGDKNDVQEIEDELQKRPGLKGELEKYKELTGADFKSVRIPNGIREEDLWEIFRTIFDEIDENDEIIFDVTHSFRYLPMLVFIVINYARVVKKCKLKSIYYGAFEVLGTPETVAKIPLEERNAPIFDLTSFVDLFDWTMGIDRYLNTGDVSVVHELTDIQIKRVNKEKLKFISKSEQGVDPKTLFMDSRQLRALSESMKNFSDVVFTCRGLELTRVACELKEKLREVTESASRQHIIPLMPVLEMMKERFDKFSKDNDYINIIETARWCADNKMYQQGLTILEEGLISFGCEKLGYENLSDKIDLDKRRKIGSYAFVVSNDFGRKSDNKKEKIPLLNIKSDVITDLLILIDEISSIRNDINHAGWRKDPSEAGAFGEQLKNFISRAEKIISPENFSTESDKCINNDSVDKEKKMLLILSHKLVPKQEEEARQRFGISKFLPMPNELHNKWSNIPPELEDLRDYLNDILEWIDLNAQEGDYALIQGDYGATFIAVNHCLAKGIIPVYSTTHRIVREEKNEDKVISVREFEHVILRKYEN	not soluble
ALAETVSDFRLPNGLEVVVIEDHRAPVVTHMVWYRVGAADEPPGHSGIAHFLEHLMFKGTDEMSAGEFSATVEAQGGDDNAFTSWDYTAYFQRVAADRLDLMMKMEADRMRDLQMTEEDVRTERQVVLEERSQRTDSDPGAVFSEQSRAAAYLNHPYGIPIIGWRHEIEQLGREDAFSFYRTYYAPNNAILVVAGDVDPAEVRRMAEEHYGALEPTP	not soluble
SESWRSFFKEALQGVGDMGRAYWDIMISNHQNSNRYLYARGNYDAAQRGPGGVWAAKLISRSRVYLQGLIDYYLFGNSSTVLEDSKSNEKAEEWGRSGKDPDRFRPDGLPKKY	soluble
AHHHHHHGSKLMEVSPLFPCIFLRRVNRFVGLVRIKERIERALITNTGRLNEFMIPGRIGYCTPKAGGKTRYILLGFEDHGKIAIIDTRLQGKAFEKIIEKELLPELEGCRIIKREPRVGESRLDYLLECSKGEIFVETKSAVLREGEYAMYPDCPSVRGQRHIKELIKLARDGKRAMIVFIGALPNVSKFKPYKKGDPKIAELLKEALEAGVEIRALGLHMELSGEIIYRGELGVEI	soluble
MDERDVLWVGVCAMPKKVESEPMQRILAALTSSRVAHFEPMIFDAKTLFERPIHKWPVCDALIAFHSEGFPLERAIAYAELRRPYCLNGLREQRMLLDRSKVYEVLARERVPVPRHIVVRHDGADVGRTDTRFVEHDDYIEYCGERLFKPFVEKPIDAEDHRVCIYYARPLYGRRRLFRKTANQSSVFEPGWRRVRREGAFIYEEFIPSEHQSDIKVYAVGPEYAYAERRKSPVVDGIVERNAHGKELRFPVELSTAERCVAATITAAFRQFVCGFDLIRHADGNAFYVNDVNGFSFVKGSQSYYESCGRILAEHLARECARSAAVDGE	not soluble
GMPSEKQPQSKGNKMAILKLDEHLYISPQLTKADAEQIAQLGIKTIICNRPDREEESQPDFAQIKQWLEQAGVTGFHHQPVTARDIQKHDVETFRQLIGQAEYPVLAYCRTGTRCSLLWGFRRAAEGMPVDEIIRRAQAAGVNLENFRERLDNARV	soluble
MAHHHHHHMNFEDDDDIVIPGEFLGLQAEYINGNNTYLLKDEIRSSILGQKIINKNNDKKTIISVYNLKPPSLYLPKIGDIVICKVQRVSFHMIYCYILSSHNIFTKNALKGFILKSDIHINEGELGDNFICFKQGDIIKAKVLSIGQYSSYKLSTVGSELGVIAAFNQKGEILRPVAWNLVLNINDMTFERRKASNDFSLLL	not soluble
